Results published in the DeepSol protein solubility set.

Assay: soluble on expression in E. coli; label from the status in PepcDB or PDB records

Sequence | soluble on expression in E. coli
MHHQSVLHSGYFHPLLRSWQTAASTVSASNLIYPIFVTDVPDDVQPIASLPGVARYGVNQLEEMLRPLVEAGLRCVLIFGVPSRVPKDEQGSAADSEDSPTIEAVRLLRKTFPSLLVACDVCLCPYTSHGHCGLLSENGAFLSEESRQRLAEVALAYAKAGCQVVAPSDMMDGRVEAIKAALLKHGLGNRVSVMSYSAKFASCFYGPFRDAAQSSPAFGDRRCYQLPPGARGLALRAVARDIQEGADMLMVKPGLPYLDMVREVKDKHPELPLAVYQVSGEFAMLWHGAQAGAFDLRTAVLETMTAFRRAGADIIITYFAPQLLKWLKEE | soluble
MHIIFDTSGFLSGLQLSLDRVYTTQEVINEIKDKYSRFNLEIAISSGKVIIMKPSTRSVEKVTKVLNLTKERKLSNTDISVIALALDLQPSIVFTDDLSVQNILKQLGIQFSSVKINKKVEKSFKFKYVCVNCKREFNIDHGECPYCGGKVVKRRIMELEHHHHHH | not soluble
MHLCGVDYYQIDKQGSCKFRFKATQFYRALKNNKVSLRGIKPKDDGTTGQKLQVIPLLEMLISPGVRICDGGKFYNLQYEKAIRSGKMIVALTCKENNKKYVPQSLLSLINQPRKSQSKSLTESHEVIKISKSELNSTSVIEVYDKF | not soluble
MHLTREVNIMSILSAVSRVINNFSTEIKNRVVEVGSNLKKSTEEFIGEVVIKAAVNRLKQGMLNALSSSNDTTKDNGNDLSTNSPDIEDVSAPTLSSKKKTEANTTLVGSTGIMQKLLGNIGVNSEQSIEVLSKHFNGAVERFTQDVSKAANEAVCEKIKSIQPEDVVKGINSLIGNTLKVDSESGDTTLSFKLESAVQILGVILAAMGMLMFASQTKSTEQKTLEIEHLPTEEIQPPSLAIH | not soluble
MHMNAEEIGMALLNGRKELGLRQGELADLAGVSERFIRDVEKGKTTVRLDKVIDVLRVLGLELSVGIHDPLKVNQ | not soluble
MHMVTYPCLTSRRFQLALIHRRVVDKRTSMHSRTASESTGARIHRPWCARHQVRPAWRCQYDKLHRVPFRSPELRLDSGPGYTTGSYRYMAGDPLEHHHHHH | not soluble
MHPMNILLKLPLKIPLMIIEKAREILEKHPLCNHCLGRMFAKLGKGTNEERGKAIRLILSMELNREVKEPENCELCQGIFRRMNELLDLVRNAVEDYEFQTFQIGSRFPKDILEKEKKIWEEFGITTGEPINREFNRELGKLFAKVTGKIPNRERPDIVIIVEPFSSKVELQVNPIYVAGRYRKLVRGIPQTPAPGFEESIATIICRVFKKNFRGKCIFKGAGREDVDVRTLGRGRPFVVEIKKPRKRKVDLKLIEEEINSSGKVEVLELKFITPEESEKILTARHKKIYEALVYVKDGVSAEEVEKVVKSLKGSEIKQRTPRRVLNSRADIVRVRRVYNVSGEYIDEHHFKLKLVTDGGLYIKELISGDKGRTKPSVSEILGKEAWCEILDVLDVLDGDENVEGDSLEHHHHHH | not soluble
MHSDELLVEILVEELPAQALLNEYKEMPKKLHALFNKRALEVGNIEIFYTPRRLCLLIKDFPLLTQETKEEFFGPPVKIACNHQDKTQGLNALGLGFYQKLGLKDHQYFQTAFKNNKEVLYHAKIHEKEPTKDLIMPIVLEFLEGLNFGKSMRWGNVEKSFIRPIHNICVLFNGEDFSGIEVKEYGFKTKQATKVHRQEGFDFIQVDSPKAYFEVLEKNHVILDPKKREAKILQEIKELETKHHIIVETDRDLLDEVVAITEYPSALLGEFDKAFLKLPSEIIITSMKENQRYFATFCQKSQEESPTLHNGFIVVSNAINKDKQKIILGNQKVLKARLSDAVFFYENDLKKPLDNAPLESVVFVQGLGTLKDKMERESIIAQYLTQKYISSLNMPLEKALELVKRAVQIAKADLLSEVVYEFSELQGIMGYYYALKQNENELVALSVKEQYLPASENAPLPSSVFSSIVALSLKLDSLFSLFSVGKIPSGSKDPFALRRLSFGLLKIIAHYGLEFDLKADLKNLFQKVGVYQSFDLEILEKFLLERFHNLIDCNPSIIRSVLNTNERDIVK | not soluble
MHSENQSKGVHYAKSQRLLEINHAHLQLMESLLDEGKKYNIFKPGIDPLQVNINIAALGGYYLINQHTLGLVYHISMVSPQALEARRKVIKETILSWLLVDPSSTAHE | not soluble
MHSLTSRAPAEPDERLQALKRLIGKVTPQIGLNDVCKTSIPDLTFYRMDKLATPTYCIYEPCVAIILQGAKEITFGEQACEFAQGSFFVTSVDIPTLARVTAASEQTPYLSIVLKLDLSMLNDVIQTQAPLKQEATPEARGFASGMASSEMLDAFARLSALTGQPLEAGLMSDLIKREICVRLLLSCAGQWLRSVTRDGYRDKGIVRAIEWLKLHYDEPLHVAQLAQLSGMASSTLHHNFRKLTGTSPVQYQKSLRLQAARSLMLTERVDVNTAALRVGYESVAQFSREYARRFGAPPSRDIKYAREAGGRRD | not soluble
MHSQFGKHKSDISLLTPAPPSPKAFGLLYAAHWLGSTDPEIWERLETLANENQCLIDLRDEKVPGTYETQLFVIGYAGNIVTVLKQLQDYIDEPNNFDRFDIDRRPRKETLKMCVPTDMFLSKFGVGLVAEGRITHYEQNRGVTIKTYAISQSQHVISVYSNENNHQLPLHDLVEYFAYPSQCYEKSFAQKIPYLVDNKSGLLNRFKDISKLDVIKTPRDQLWLMALDGMKTVDARESILQALRENPDSASLYVRACKLEHLPSCKMEWLLHALQRDTLDDKMKIIKHAETYFRGPAILQILESAVLSLSNDIHIVRELAIAHEKSGNFEKSMQFLKDCIDNNSWNSTELTASMIHCEHAGANRTSKVYLEAMYSIFNFTTSEEAALIEIVKVLVETDSPLSAKSLSLELMTRYAGTPTFEKTRQLFHSLFYTTCSKSDSERYDDTFIKHMAKWNKKQQEQQK | not soluble
MHSRSVKFPSSKGHQIAGTIDFPDGTPRAFAMFAHCFTGSRFTPGAARVSKELAERGIACLRFDFPGLGQSEGIFSETSFSENVADIKAAADWLGQHYSAPQLLIGHSLGGAASLKAATTLKCLRGVATIGAPFDPAHAVLHFADRIGEVDENGAVTLTLGGRDITISREFLEDLADTNPEAYLPRLRKPLLILHSPIDQTVGVDNAQLIFRTTRYPKSLVALDKVDHLLTKQGSAQQAARIINTWFEQHIVAENEDPNADTLPEGVAVAQSIPAGKFADIVHTGTHSFTTDREKALGGKNLGVSPTSLLISALAAATSQEIRLAAKESRIHSLEDVNVTISKTVGDGERVHLRRNISLVGDLTDDERHELLLAARNSDIEKMLQGNVTINDQDV | not soluble
MHTILILGAGPAGAAVALGLRRLGYPVTLVSDWRRFPALEGVSLRVLEALRGAGLEQALAQALQPSQRRVAWNGAEHAQNIEYLLDRPAFDRGLREALREAQVKLIEGRVLGVQSSEAGHRVQVQGQGEVRGEFLVEARGRQAPVLDKALRQGGGKGLRGPETVSLLNRWQGPGGSATSAVHSLEDGWAWMARREDGQCYWQLTLDVESAGLPGKAQLLEYCRQRRLGSAMAREFFAGGQEQQLHLHARSSTAILNPQACGANWLRVGDAAMAVDPLSGNGIFQSLSSALQAPAVINTLLQQPQRAALAQRFHGQRVEQLFLRFARIGRDFYADEQRWPEQPFWQARRQWPDCQPAHIAVDFSALRIERAPVLRDGLVDEAEVVITPDQPLGIWHVQGVELAPLLRRLRSQGAAQALAQLSPDQNRLIRSWLLAQGYRPLEHHHHHH | not soluble
MHTKGPTPQQHDGSALRIGIVHARWNETIIEPLLAGTKAKLLACGVKESNIVVQSVPGSWELPIAVQRLYSASQLQTPSSGPSLSAGDLLGSSTTDLTALPTTTASSTGPFDALIAIGVLIKGETMHFEYIADSVSHGLMRVQLDTGVPVIFGVLTVLTDDQAKARAGVIEGSHNHGEDWGLAAVEMGVRRRDWAAGKTE | soluble
MHTNERKTVVYEYQNEQEVVMKVKELELQGVRHDDIYVLAHEKHITKRIADDTNTNTIGVKEQGLGTSIINFFSKKGDELRNQMEEMGLSKEEANLYEEKLDQGKILLLVTAEVPMANDRQPQNYHSL | not soluble
MHVAIIGGGISGIAAAFYLAQQKVSIDIFESENQIGGRAGSDFLQERRVDFGGKNIGRNYLLFREFARAYGDPAFEYFGINTSQLINGRIVSISREGSAWLNLLKIIRLCGLRKGITRLYPHIQAILNDRSQGVLCSDYFRALSENFDHLTLDRYLNQRCIDRVIRPITIRMNGAEPEECYPGNFGSNLALALDSFEQLTLGMYNLLDTFIASHRQESSFRILTGHRVTSIAKDQDKFRINYLNGAVSGTGSYDRIISALPAYSLAELLQDELPEASRLLNKISYFPVSIAIVKYRDEVFPQNRRAMVFDRNSPLSNAGAYGLNDLDIVRYTFSGKASRAAISEHSTPEEVISLGEKTASPYFSIKDNPKEAFVFRYFPKGLCAYSPKHHLLLEEIDRLVNRLSGFGTTGDYRRGASIEACFRAAKECIEKVVGDGSLEHHHHHH | soluble
MHVFDNNGIELKAECSIGEEDGVYGLILESWGPGDRNKDYNIALDYIIERLVDSGVSQVVVYLASSSVRKHMHSLDERKIHPGEYFTLIGNSPRDIRLKMCGYQAYFSRTGRKEIPSGNRTKRILINVPGIYSDSFWASIIRGELSELSQPTDDESLLNMRVSKLIKKTLSQPEGSRKPVEVERLQKVYVRDPMVKAWILQQSKGICENCGKNAPFYLNDGNPYLEVHHVIPLSSGGADTTDNCVALCPNCHRELHYSKNAKELIEMLYVNINRLQKLEHHHHHH | soluble
MHVMIFGAGYSGKAIANALKTKAASVCGTTRSADKFANLAAAGMTPLLFDGVHLDDDLIAAMRNVTHLVQSIAPGKDGDPLFALLGGDLKKLLPNLKWLAYLSTVGVYGDHHGAWVNETTPCRPVSARSVERVAAEAAWTEAAQSADVPLSILRLSGIYGPGRNTFMNFEKGTARRLVKKDQVFNRIRVEDIGAAIAFLALKNERGIFNVTDDEPCPPQDVVSFAADLMGVVPPAEQDFGTADLTPMARSFYGENKRVSNAKIRELGFDFRFPEYRQSLKQLWESSLWRG | not soluble
MHYHGSCHCGTIRFDVEGELTGAMSCNCSICRRKGALLWFVPRDHLRLATPDEQIATYTFNRHLIKHRFCPTCGIHTHGEGVDQQGRAMAAINIRCLDDVDLDAVAVHQYDGRAALEHHHHHH | soluble
MIATKDIRIEKDFLGEKEVPSIAYYGVQTLRAVENFPITGYRIHPSLITAMAIVKKAAALANMDTGYLAKDIGHEIAEAAQEIVDGKFHDQFIVDPIQGGAGTSINMNTNEVIANRALERMGYEKGEYAKISPNTHVNMAQSTNDAFPTGIHIATLMRLEELLITMEELHAAFRAKAKEFDHVIKMGRTHLQDAVPIRLGQEFEAYSRVLARDIKRIKQSRQHLYEVNMGATAVGTGLNANPTYIEQVVKHLRTFSGFPLVGAEHLVDATQNTDAYTEVSAALKVCMMNMSKIANDLRIMASGPRVGLAEIQLPARQPGSSIMPGKVNPVMAEVINQVAFQVIGNDHTICLASEAGQLELNVMEPVLVFNLIQSISIMNNGFRVFREYCIKGITANEELLKQYVEKSVGIITAVNPHIGYEAASRIAREAIETGKSVRELCLEHGVLTEEELDIILDPFEMTHPEIAGASLLKDKKM | not soluble
MIDALLQEKITTRLIDTAPTIPVGVSNRHVHLSQQDVEALFGVGYQLTPFKPLRQPGQFAAEECVTVVGPKGSLTHVRVLGPVRPTSQLEISRADCFTLGIKAPVRESGQLENAGDALLVGPKGHVELHSQVICAWRHIHMSPQDARLLNVSNGQKVSVRSHGERQLTFDEVVVRVRNDFALELHIDTEEANAAGLKNGAQVTLIR | not soluble
MIDDLLNFFNSFNVVKNYKLINQLKNEVDTLKSRLDIPRELLDGFYADRNSREYREVYEKDAPLVTVCIGTYNRGKLLVERSVRSVLEQSYGNIELIVVGDCCTDDTPRLVQGITDPRFRFINLPERGNYPENPLHRWCVAGTVPFNYALSQARGDFITHLDDDDEFVPDRIEKLVKFIQREKADLVWHPFWYERSNGRWAMRKAQEFSGGKVTTSSIFYHRWFTAVPWDIEAYRYQEPGDWNRLRKIKYLGARVARYPEPLLRHYCERNQESLSSRTIQTRNTKLEHHHHHH | not soluble
